Where “and” joins values, the source holds several entries; their conditions need not be identical. Equal entries are not always repeated. Bounds are passed on as bounds.

In data set [1] the test system is CaStn1N K98E/K170E;CaTen1 (Candida albicans;Candida albicans). Briefly: UV crosslinking. As to conditions: single Iodo-dU; EMSA: 10 mM Tris-HCl pH 8.0, 2 mM MgCl2, 1 mM spermidine, 1 mM DTT, 10% glycerol, 22 C; UV crosslinking: 50 mM Hepes-NaOH pH 7.5, 10% glycerol, 30 mM ….
Data set [2] concerns CaStn1N;CaTen1 (Candida albicans;Candida albicans). Briefly: UV crosslinking. The conditions noted are these: reference; normalized to Ten1 adduct; single Iodo-dU; EMSA: 10 mM Tris-HCl pH 8.0, 2 mM MgCl2, 1 mM spermidine, 1 mM DTT, 10% glycerol, 22 C; UV crosslinking: 50 mM Hepes-NaOH pH 7.5, 10% glycerol, 30 mM ….
For data set [3], the target named is Cdc13 (CST subunit);Stn1;Ten1 (Candida glabrata;Candida glabrata;Candida glabrata) (UniProt Q6FM89). Briefly: competition. The conditions noted are these: labeled CgTELX1 7.5 nM, CST 10 nM; EMSA: 10 mM Tris-HCl pH 8.0, 2 mM MgCl2, 1 mM spermidine, 1 mM DTT, 10% glycerol, 22 C; UV crosslinking: 50 mM Hepes-NaOH pH 7.5, 10% glycerol, 30 mM ….
Data set [4] relates to Cdc13 (Candida glabrata). Briefly: competition. As to conditions: labeled CgTELX1 7.5 nM, Cdc13 6 nM; EMSA: 10 mM Tris-HCl pH 8.0, 2 mM MgCl2, 1 mM spermidine, 1 mM DTT, 10% glycerol, 22 C; UV crosslinking: 50 mM Hepes-NaOH pH 7.5, 10% glycerol, 30 mM ….
The target in data set [5] is SUMO-CgCdc13-FLAG fusion protein (Candida glabrata Cdc13) (Candida glabrata). The data set can be described thus: co-IP; extract of E. coli co-expressing SUMO-Cdc13-FG and HIS6-SUMO-Stn1 (CS) on M2 (anti-FLAG) resin; Coomassie and Western (anti-FLAG, anti-HIS6).
Data set [6] has the same target. Briefly: Coomassie staining intensities of the subunits in SDS-PAGE against BSA standards; purified CST complex (M2 fractions); intensities assumed proportional to molecular weights.
For data set [7] the target is unchanged. Briefly: Western analysis of serial dilutions with anti-SUMO antibodies; serial three fold dilutions of the purified CST complex; SUMO tag present in both the Cdc13 and Stn1 fusions.
For data set [8] the target is unchanged. The data set can be described thus: co-sedimentation; purified CST complex on a 15-30% glycerol gradient; fractions by Western with anti-SUMO (Cdc13, Stn1) and anti-GST (Ten1); 500 kDa fraction also in serial two fold dilutions with anti-SUMO.

C. albicans telomere IdU oligo gave a binding signal (fold reduction vs WT) in data set [1] of 3. In data set [2], this substance had a binding signal (fraction of WT Stn1N crosslinking) of 1.
Turning to “CGGTGTAAGGATGCACTTGAAACTCGGTGTAAGGATGCACTTGAAACT [LeTELX2]”, the binding signal (fold more competitor than CgTELX1) in data set [3] and in data set [4] was over 200 throughout.
Turning to “HIS6-SUMO-CgStn1 fusion protein (Candida glabrata Stn1) (natural protein)”, the stoichiometry N (Stn1 per Cdc13) in data set [5] was 2 to 3; in data set [6], 2 and 3 and 2.5; in data set [7], 2.5; in data set [8] it was 2.5.
For “SUMO-CgCdc13-FLAG fusion protein (Candida glabrata Cdc13) (natural protein)”, the stoichiometry N in data set [8] stood at 2.
As for “TCTTTAGGGAGGTACTGATGTTCTTTAGGGAGGTACTGATGT [ClTELX2]”, the binding signal (fold more competitor than CgTELX1) in data set [3] and in data set [4] was 20 each time.
Consider “TTAGGATCCATGAAAACTGAAGAAGGTAAACTGGTA [R1]”, for which the binding signal (fold more competitor than CgTELX1) in data set [3] and in data set [4] was over 200 each time.

For the origin of these results see paper PMC3536697.
